Laboratory results: US20210253718A1 (MODMAB THERAPEUTICS, published 2021)

Assays:
FZD7-Fc = FZD7-Fc (UniProt O75084 33-185); experiment: SPR, Frizzled-Fc chimera;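 also: binding targets are Fc fusions carrying an extracellular Frizzled fragment that contains the CRD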
FZD8-Fc = biological target: T1, FZD8-Fc (UniProt Q9H461 28-158, limits assumed); experiment: SPR, Frizzled-Fc chimera;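 also: binding targets are Fc fusions carrying an extracellular Frizzled fragment that contains the CRD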
T1 construct: extracellular domain; also called Frizzled-Fc chimera (FZD8); not shown: Fc part
T1 sequence (looked up): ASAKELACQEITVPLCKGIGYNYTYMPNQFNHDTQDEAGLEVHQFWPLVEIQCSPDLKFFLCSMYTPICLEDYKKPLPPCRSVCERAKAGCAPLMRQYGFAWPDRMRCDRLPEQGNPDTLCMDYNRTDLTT

[1] = biological target: T2, recombinant human FZD5-Fc chimera (R&D Systems, Catalog no. 1617-FZ) (human, UniProt Q13467 27-167); experiment: SPR, Frizzled-Fc chimera;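 also: binding targets are Fc fusions carrying an extracellular Frizzled fragment that contains the CRD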
T2 construct: used for selection and ELISA; Fc part of the bought chimera not given
T2 sequence: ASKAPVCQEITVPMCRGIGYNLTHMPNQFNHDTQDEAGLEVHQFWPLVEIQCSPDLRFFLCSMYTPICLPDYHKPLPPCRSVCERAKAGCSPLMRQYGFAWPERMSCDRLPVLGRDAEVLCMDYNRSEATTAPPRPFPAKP

FZD1-Fc = biological target: T3, FZD1-Fc (UniProt Q9UP38 73-250, limits assumed); experiment: SPR, Frizzled-Fc chimera;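 also: binding targets are Fc fusions carrying an extracellular Frizzled fragment that contains the CRD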
T3 construct: extracellular domain; also called Frizzled-Fc chimera (FZD1); not shown: Fc part

FZD2-Fc = biological target: T4, FZD2-Fc (UniProt Q14332 24-190, limits assumed); experiment: SPR, Frizzled-Fc chimera
T4 construct: extracellular domain; also called Frizzled-Fc chimera (FZD2); not shown: Fc part

[2] = biological target: T5, FZD5 cysteine-rich domain (CRD), MYC-tagged and GPI-anchored on CHO cells (human, UniProt Q13467 29-156, GPI anchor); experiment: flow cytometry, CHO-CRD cells;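 also: flow cytometry of Fab binding to CHO cells overexpressing a Frizzled CRD, with binding defined as median fluorescence over twice that of CHO cells lacking any Frizzled CRD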
T5 construct: also called FZD5 CRD; CHO-myc-FZDGPI; not shown: MYC tag and GPI anchor signal
T5 sequence: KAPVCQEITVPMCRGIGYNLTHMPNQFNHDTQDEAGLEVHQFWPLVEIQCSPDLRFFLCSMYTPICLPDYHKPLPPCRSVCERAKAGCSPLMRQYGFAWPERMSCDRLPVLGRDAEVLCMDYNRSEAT

[3] = biological target: T6, FZD10 cysteine-rich domain (CRD), MYC-tagged and GPI-anchored on CHO cells (human, UniProt Q9ULW2 30-156, GPI anchor); experiment: flow cytometry, CHO-CRD cells;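 also: flow cytometry of Fab binding to CHO cells overexpressing a Frizzled CRD, with binding defined as median fluorescence over twice that of CHO cells lacking any Frizzled CRD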
T6 construct: also called FZD10 CRD; CHO-myc-FZDGPI; not shown: MYC tag and GPI anchor signal
T6 sequence: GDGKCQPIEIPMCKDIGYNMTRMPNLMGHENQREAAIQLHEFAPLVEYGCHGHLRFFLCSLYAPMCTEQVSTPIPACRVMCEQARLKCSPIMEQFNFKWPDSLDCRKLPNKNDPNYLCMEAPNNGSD

[4] = biological target: T7, FZD1 cysteine-rich domain (CRD), MYC-tagged and GPI-anchored on CHO cells (human); experiment: flow cytometry, CHO-CRD cells;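 also: flow cytometry of Fab binding to CHO cells overexpressing a Frizzled CRD, with binding defined as median fluorescence over twice that of CHO cells lacking any Frizzled CRD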
[5] = biological target: T8, FZD8 cysteine-rich domain (CRD), MYC-tagged and GPI-anchored on CHO cells (human, UniProt Q498S8 31-155 (rat entry), GPI anchor); experiment: flow cytometry, CHO-CRD cells;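 also: flow cytometry of Fab binding to CHO cells overexpressing a Frizzled CRD, with binding defined as median fluorescence over twice that of CHO cells lacking any Frizzled CRD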
T8 construct: also called FZD8 CRD; CHO-myc-FZDGPI; not shown: MYC tag and GPI anchor signal
T8 sequence: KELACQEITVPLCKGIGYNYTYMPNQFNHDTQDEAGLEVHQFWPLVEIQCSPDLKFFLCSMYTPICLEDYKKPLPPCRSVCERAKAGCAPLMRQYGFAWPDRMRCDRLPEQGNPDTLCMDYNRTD

[6] = biological target: T9, FZD2 cysteine-rich domain (CRD), MYC-tagged and GPI-anchored on CHO cells (human, UniProt Q14332 35-161); experiment: flow cytometry, CHO-CRD cells
[7] = biological target: T10, FZD4 cysteine-rich domain (CRD), MYC-tagged and GPI-anchored on CHO cells (human, UniProt Q9ULV1 42-167, GPI anchor); experiment: flow cytometry, CHO-CRD cells
T10 construct: also called FZD4 CRD; CHO-myc-FZDGPI; not shown: MYC tag and GPI anchor signal
T10 sequence: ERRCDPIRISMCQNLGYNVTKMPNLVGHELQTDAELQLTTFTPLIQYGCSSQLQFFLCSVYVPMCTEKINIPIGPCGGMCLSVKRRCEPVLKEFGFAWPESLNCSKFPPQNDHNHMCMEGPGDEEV

[8] = biological target: T11, FZD6 cysteine-rich domain (CRD), MYC-tagged and GPI-anchored on CHO cells (human, UniProt O60353 20-146, GPI anchor); experiment: flow cytometry, CHO-CRD cells
T11 construct: also called FZD6 CRD; CHO-myc-FZDGPI; not shown: MYC tag and GPI anchor signal
T11 sequence: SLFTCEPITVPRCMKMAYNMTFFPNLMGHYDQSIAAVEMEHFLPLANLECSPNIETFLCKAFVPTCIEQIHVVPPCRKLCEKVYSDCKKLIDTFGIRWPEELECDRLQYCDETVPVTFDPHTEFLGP

[9] = biological target: T12, FZD3 cysteine-rich domain (CRD), MYC-tagged and GPI-anchored on CHO cells (human, UniProt Q9NPG1 24-150, GPI anchor); experiment: flow cytometry, CHO-CRD cells
T12 construct: domain: cysteine-rich domain (CRD); also called FZD3 CRD; CHO-myc-FZDGPI; not shown: MYC tag and GPI anchor signal
T12 sequence (looked up): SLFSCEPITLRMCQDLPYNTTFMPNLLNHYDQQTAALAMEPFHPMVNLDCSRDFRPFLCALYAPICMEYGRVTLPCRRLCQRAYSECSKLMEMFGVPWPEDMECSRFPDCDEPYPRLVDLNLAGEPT

[10] = biological target: T13, FZD7 cysteine-rich domain (CRD), MYC-tagged and GPI-anchored on CHO cells (human, UniProt O75084 45-169); experiment: flow cytometry, CHO-CRD cells
[11] = biological target: T14, FZD9 cysteine-rich domain (CRD), MYC-tagged and GPI-anchored on CHO cells (human, UniProt O00144 35-161, GPI anchor); experiment: flow cytometry, CHO-CRD cells
T14 construct: also called FZD9 CRD; CHO-myc-FZDGPI; not shown: MYC tag and GPI anchor signal
T14 sequence: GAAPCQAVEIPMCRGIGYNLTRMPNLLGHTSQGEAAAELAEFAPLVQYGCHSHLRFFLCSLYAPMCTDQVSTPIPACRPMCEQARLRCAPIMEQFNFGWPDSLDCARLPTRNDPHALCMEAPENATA

[12] = biological target: T5, FZD5 cysteine-rich domain (CRD), …; experiment: flow cytometry on CHO-GPI cells over-expressing the Frizzled CRD;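 also: binding of recombinant anti-Frizzled Fabs to the cells, read as fold mean fluorescence intensity above secondary-antibody-only background and normalized to control CHO-GPI cells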
[13] = biological target: T6, FZD10 cysteine-rich domain (CRD), …; experiment: as above
[14] = biological target: T7, FZD1 cysteine-rich domain (CRD), …; experiment: as above
[15] = biological target: T8, FZD8 cysteine-rich domain (CRD), …; experiment: as above
[16] = biological target: T9, FZD2 cysteine-rich domain (CRD), …; experiment: as above
[17] = biological target: T10, FZD4 cysteine-rich domain (CRD), …; experiment: as above
[18] = biological target: T11, FZD6 cysteine-rich domain (CRD), …; experiment: as above
[19] = biological target: T12, FZD3 cysteine-rich domain (CRD), …; experiment: as above
[20] = biological target: T13, FZD7 cysteine-rich domain (CRD), …; experiment: as above
[21] = biological target: T14, FZD9 cysteine-rich domain (CRD), …; experiment: as above

T3 sequence (Q9UP38 73-250 limits assumed): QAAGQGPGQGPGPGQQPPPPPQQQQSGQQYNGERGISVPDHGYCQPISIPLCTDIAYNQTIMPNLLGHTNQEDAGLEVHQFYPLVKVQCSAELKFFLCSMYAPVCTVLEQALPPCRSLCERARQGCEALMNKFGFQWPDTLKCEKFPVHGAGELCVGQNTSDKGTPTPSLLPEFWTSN

B1: IgG-2916 (antibody, V domains shown)
VH: EVQLVESGGGLVQPGGSLRLSCAASGFNISYSSIHWVRQAPGKGLEWVASIYPSYSYTYYADSVKGRFTISADTSKNTAYLQMNSLRAEDTAVYYCARYGYYGMDYWGQGTLVTVSS
VL: DIQMTQSPSSLSASVGDRVTITCRASQSVSSAVAWYQQKPGKAPKLLIYSASSLYSGVPSRFSGSRSGTDFTLTISSLQPEDFATYYCQQWYHYPYLITFGQGTKVEIK
Kd (FZD7-Fc): 0.496 nM
koff (FZD7-Fc): 0.000382 s⁻¹
kon (FZD7-Fc): 770000 M⁻¹ s⁻¹
Kd (FZD8-Fc): 0.0455 nM
koff (FZD8-Fc): 4.75e-05 s⁻¹
kon (FZD8-Fc): 1.04e+06 M⁻¹ s⁻¹
Kd [1]: 0.00988 nM
koff [1]: 1.3e-05 s⁻¹
kon [1]: 1.32e+06 M⁻¹ s⁻¹
Kd (FZD1-Fc): 1.24 nM
koff (FZD1-Fc): 0.000451 s⁻¹
kon (FZD1-Fc): 364000 M⁻¹ s⁻¹
Kd (FZD2-Fc): 0.905 nM
koff (FZD2-Fc): 0.000452 s⁻¹
kon (FZD2-Fc): 500000 M⁻¹ s⁻¹

B2: Fab-2919 (Fab, V domains shown)
VH: EVQLVESGGGLVQPGGSLRLSCAASGFNISYSYIHWVRQAPGKGLEWVASIYSSSGSTSYADSVKGRFTISADTSKNTAYLQMNSLRAEDTAVYYCARGAIDYWGQGTLVTVSS
VL: DIQMTQSPSSLSASVGDRVTITCRASQSVSSAVAWYQQKPGKAPKLLIYSASSLYSGVPSRFSGSRSGTDFTLTISSLQPEDFATYYCQQWYSSGHVLITFGQGTKVEIK
notes: Fab
median fluorescence [2]: 43.7
median fluorescence [3]: 2.48
median fluorescence [4]: 3.52
median fluorescence [5]: 20.5
median fluorescence [6]: 4.26
median fluorescence [7]: 3.79
median fluorescence [8]: 2.64
median fluorescence [9]: 3.96
median fluorescence [10]: 2.41
median fluorescence [11]: 2.79
fold-increase in mean fluorescence intensity over background (secondary antibody alone), normalized to control CHO-GPI [12]: 19.2 fold
binding result [13]: no binding (tested: 200 nM)
binding result [14]: no binding (tested: 200 nM)
fold-increase in mean fluorescence intensity over background (secondary antibody alone), normalized to control CHO-GPI [15]: 14.4 fold
binding result [16]: no binding (tested: 200 nM)
binding result [17]: no binding (tested: 200 nM)
binding result [18]: no binding (tested: 200 nM)
binding result [19]: no binding (tested: 200 nM)
binding result [20]: no binding (tested: 200 nM)
binding result [21]: no binding (tested: 200 nM)

B3: Fab-2928 (Fab, V domains shown)
VH: EVQLVESGGGLVQPGGSLRLSCAASGFNISYSSIHWVRQAPGKGLEWVASIYPSYSSTYYADSVKGRFTISADTSKNTAYLQMNSLRAEDTAVYYCARYYAMDYWGQGTLVTVSS
VL: DIQMTQSPSSLSASVGDRVTITCRASQSVSSAVAWYQQKPGKAPKLLIYSASSLYSGVPSRFSGSRSGTDFTLTISSLQPEDFATYYCQQAFYYPITFGQGTKVEIK
notes: Fab; also called Fv-2928
median fluorescence [2]: 42.9
median fluorescence [3]: 3.96
median fluorescence [7]: 5.19
median fluorescence [8]: 3.08
median fluorescence [9]: 4.37
median fluorescence [10]: 5.94
median fluorescence [11]: 4.49
fold-increase in mean fluorescence intensity over background (secondary antibody alone), normalized to control CHO-GPI [12]: 13 fold
binding result [13]: no binding (tested: 200 nM)
binding result [17]: no binding (tested: 200 nM)
binding result [18]: no binding (tested: 200 nM)
binding result [19]: no binding (tested: 200 nM)
binding result [20]: no binding (tested: 200 nM)
binding result [21]: no binding (tested: 200 nM)
